Data reported in the supplement of paper PMC9112550, “Optimization of the antimicrobial peptide Bac7 by deep mutational scanning” (BMC Biology, 2022).

Test system: Escherichia coli TOP10
Test: shrunken log2 fold change of peptide-encoding DNA abundance (4.5 h post-induction vs induction); higher = less antimicrobial activity (less host growth inhibition)
Conditions: time post-induction: 4.5 h; library: site-saturation at positions 5, 18, 19, 20
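Note: peptides expressed intracellularly from a pBAD plasmid library in pooled LB shake-flask culture, induced with 0.3% L-arabinose, DNA abundance read by NGS, three biological replicates, DESeq2 with apeglm shrinkage.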

Sequence	shrunken log2 fold change
RRIRARPPRLPRPRPRPINKPRP	-0.311
RRIRMRPPRLPRPRPRPRAQPRP	0.232
RRIRMRPPRLPRPRPRPIVHPRP	-0.289
RRIRIRPPRLPRPRPRPQVPPRP	0.00863
RRIRVRPPRLPRPRPRPTTYPRP	-0.465
RRIRARPPRLPRPRPRPATCPRP	0.03
RRIRGRPPRLPRPRPRPGSPPRP	0.469
RRIRPRPPRLPRPRPRPKFYPRP	-0.351
RRIRFRPPRLPRPRPRPTVAPRP	0.226
RRIRMRPPRLPRPRPRPRMRPRP	1.41
RRIRDRPPRLPRPRPRPCFTPRP	0.0373
RRIRVRPPRLPRPRPRPPEGPRP	0.582
RRIRKRPPRLPRPRPRPIHRPRP	-0.0202
RRIRRRPPRLPRPRPRPQWQPRP	0.435
RRIRMRPPRLPRPRPRPPYPPRP	0.134
RRIRRRPPRLPRPRPRPKLSPRP	0.262
RRIRMRPPRLPRPRPRPLPMPRP	0.429
RRIRVRPPRLPRPRPRPAVTPRP	-0.269
RRIRERPPRLPRPRPRPNAAPRP	0.163
RRIRCRPPRLPRPRPRPVAQPRP	0.159
RRIRRRPPRLPRPRPRPIEAPRP	-0.137
RRIRERPPRLPRPRPRPIRRPRP	-0.17
RRIRMRPPRLPRPRPRPAPKPRP	0.675
RRIRIRPPRLPRPRPRPHRSPRP	0.0394
RRIRERPPRLPRPRPRPPPTPRP	0.518

Sequence	shrunken log2 fold change
RRIRYRPPRLPRPRPRPGPAPRP	0.0198
RRIRDRPPRLPRPRPRPLWIPRP	-0.421
RRIRRRPPRLPRPRPRPKAFPRP	-0.0104
RRIRDRPPRLPRPRPRPRNYPRP	-0.313
RRIRTRPPRLPRPRPRPWNLPRP	-0.031
RRIRMRPPRLPRPRPRPPVRPRP	0.458
RRIRWRPPRLPRPRPRPGALPRP	0.406
RRIRIRPPRLPRPRPRPTFPPRP	-0.316
RRIRMRPPRLPRPRPRPMDHPRP	-0.00783
RRIRDRPPRLPRPRPRPTICPRP	-0.232
RRIRMRPPRLPRPRPRPSIIPRP	0.0973
RRIRNRPPRLPRPRPRPQDEPRP	0.00847
RRIRARPPRLPRPRPRPICFPRP	1.21
RRIRLRPPRLPRPRPRPPVQPRP	0.553
RRIRNRPPRLPRPRPRPSFRPRP	0.0751
RRIRERPPRLPRPRPRPLYEPRP	-1.24
RRIRLRPPRLPRPRPRPLMQPRP	-0.0571
RRIRTRPPRLPRPRPRPAYEPRP	0.164
RRIRERPPRLPRPRPRPCNLPRP	-0.904
RRIRIRPPRLPRPRPRPKFTPRP	-0.8
RRIRNRPPRLPRPRPRPSDDPRP	-0.0915
RRIRRRPPRLPRPRPRPFDAPRP	0.44
RRIRMRPPRLPRPRPRPSINPRP	0.0424
RRIRTRPPRLPRPRPRPAHQPRP	3.43
RRIRKRPPRLPRPRPRPLNKPRP	-0.0644

Sequence	shrunken log2 fold change
RRIRTRPPRLPRPRPRPFTFPRP	-0.187
RRIRNRPPRLPRPRPRPVEMPRP	0.0554
RRIRVRPPRLPRPRPRPEYIPRP	-0.00622
RRIRRRPPRLPRPRPRPTMSPRP	0.315
RRIRCRPPRLPRPRPRPNTVPRP	-0.768
RRIRTRPPRLPRPRPRPKYVPRP	0.0339
RRIRFRPPRLPRPRPRPDAQPRP	0.483
RRIRWRPPRLPRPRPRPGSTPRP	0.161
RRIRSRPPRLPRPRPRPNYKPRP	-0.546
RRIRWRPPRLPRPRPRPGAVPRP	0.745
RRIRFRPPRLPRPRPRPKREPRP	0.0359
RRIRNRPPRLPRPRPRPLEGPRP	0.033
RRIRYRPPRLPRPRPRPEFSPRP	-0.307
RRIRFRPPRLPRPRPRPTVHPRP	-0.238
RRIRPRPPRLPRPRPRPIDQPRP	-0.116
RRIRDRPPRLPRPRPRPRAVPRP	0.764
RRIRRRPPRLPRPRPRPEDMPRP	0.296
RRIRFRPPRLPRPRPRPPDRPRP	0.128
RRIRHRPPRLPRPRPRPAFFPRP	0.0438
RRIRRRPPRLPRPRPRPMYTPRP	-0.219
RRIRWRPPRLPRPRPRPGQMPRP	0.0528
RRIRDRPPRLPRPRPRPIVVPRP	0.218
RRIRPRPPRLPRPRPRPIFNPRP	-0.238
RRIRSRPPRLPRPRPRPMPIPRP	-0.109
RRIRKRPPRLPRPRPRPSRQPRP	0.192

Sequence	shrunken log2 fold change
RRIRSRPPRLPRPRPRPSGSPRP	-0.151
RRIRDRPPRLPRPRPRPHMCPRP	0.0514
RRIRFRPPRLPRPRPRPTNDPRP	-0.414
RRIRYRPPRLPRPRPRPLWFPRP	-0.494
RRIRERPPRLPRPRPRPQEGPRP	0.0271
RRIRPRPPRLPRPRPRPGGSPRP	0.166
RRIRERPPRLPRPRPRPYYRPRP	-0.165
RRIRLRPPRLPRPRPRPLRWPRP	0.524
RRIRRRPPRLPRPRPRPACWPRP	0.626
RRIRRRPPRLPRPRPRPYRMPRP	-0.292
RRIRGRPPRLPRPRPRPVQTPRP	0.626
RRIRYRPPRLPRPRPRPFDNPRP	0.0112
RRIRCRPPRLPRPRPRPRIRPRP	0.0722
RRIRQRPPRLPRPRPRPNWYPRP	-0.0479
RRIRARPPRLPRPRPRPKRSPRP	0.427
RRIRHRPPRLPRPRPRPMDWPRP	-0.177
RRIRDRPPRLPRPRPRPKCSPRP	0.243
RRIRSRPPRLPRPRPRPLKMPRP	0.127
RRIRERPPRLPRPRPRPKWVPRP	-0.0367
RRIRSRPPRLPRPRPRPMNNPRP	-0.479
RRIRYRPPRLPRPRPRPICDPRP	-0.269
RRIRKRPPRLPRPRPRPLLDPRP	0.246
RRIRFRPPRLPRPRPRPPFYPRP	-0.462
RRIRLRPPRLPRPRPRPQLFPRP	0.131
RRIRYRPPRLPRPRPRPEYAPRP	-0.0128

Sequence	shrunken log2 fold change
RRIRSRPPRLPRPRPRPCMAPRP	-0.182
RRIRDRPPRLPRPRPRPLRGPRP	0.112
RRIRHRPPRLPRPRPRPEPDPRP	0.257
RRIRLRPPRLPRPRPRPIRPPRP	-0.113
RRIRYRPPRLPRPRPRPIIKPRP	-1.25
RRIRNRPPRLPRPRPRPCFNPRP	0.0695
RRIRYRPPRLPRPRPRPYHPPRP	-0.152
RRIRRRPPRLPRPRPRPTNVPRP	-0.0322
RRIRARPPRLPRPRPRPQQRPRP	0.199
RRIRPRPPRLPRPRPRPHSNPRP	-0.316
RRIRLRPPRLPRPRPRPYSGPRP	-0.103
RRIRWRPPRLPRPRPRPAEEPRP	3.62
RRIRPRPPRLPRPRPRPSMNPRP	-0.522
RRIRHRPPRLPRPRPRPLLKPRP	-0.013
RRIRLRPPRLPRPRPRPFWYPRP	-0.0126
RRIRWRPPRLPRPRPRPEPNPRP	1.23
RRIRTRPPRLPRPRPRPFVMPRP	-0.277
RRIRYRPPRLPRPRPRPSITPRP	-0.857
RRIRQRPPRLPRPRPRPTNNPRP	-0.547
RRIRERPPRLPRPRPRPIGQPRP	0.000367
RRIRFRPPRLPRPRPRPKQWPRP	0.133
RRIRERPPRLPRPRPRPYWQPRP	-0.172
RRIRYRPPRLPRPRPRPIVGPRP	0.1
RRIRFRPPRLPRPRPRPRYGPRP	-0.299
RRIRQRPPRLPRPRPRPHAAPRP	0.465

Sequence	shrunken log2 fold change
RRIRERPPRLPRPRPRPDRGPRP	0.0208
RRIRFRPPRLPRPRPRPGRYPRP	-0.0275
RRIRERPPRLPRPRPRPTPCPRP	0.0922
RRIRERPPRLPRPRPRPINCPRP	-0.00179
RRIRNRPPRLPRPRPRPPDVPRP	-0.14
RRIRPRPPRLPRPRPRPGYHPRP	-0.506
RRIRCRPPRLPRPRPRPDHMPRP	-0.0636
RRIRTRPPRLPRPRPRPGYMPRP	-0.297
RRIRSRPPRLPRPRPRPCCNPRP	-0.0171
RRIRARPPRLPRPRPRPIIFPRP	-0.323
RRIRPRPPRLPRPRPRPTASPRP	0.259
RRIRVRPPRLPRPRPRPIIGPRP	0.0272
RRIRLRPPRLPRPRPRPWAQPRP	0.249
RRIRSRPPRLPRPRPRPDTTPRP	-0.191
RRIRARPPRLPRPRPRPCNDPRP	-0.0678
RRIRNRPPRLPRPRPRPSVNPRP	-0.201
RRIRCRPPRLPRPRPRPELFPRP	0.676
RRIRGRPPRLPRPRPRPCGHPRP	0.666
RRIRGRPPRLPRPRPRPAMTPRP	1.48
RRIRIRPPRLPRPRPRPGFMPRP	-0.487
RRIRRRPPRLPRPRPRPHMQPRP	0.0237
RRIRYRPPRLPRPRPRPVWMPRP	-0.283
RRIRLRPPRLPRPRPRPSFDPRP	-0.373
RRIRRRPPRLPRPRPRPYRGPRP	-0.191
RRIRRRPPRLPRPRPRPVYSPRP	-0.139
